Results: publication PMC3929958 (Molecular cell, 2013)
Where two headings read alike, the source gives them in different places.

Tests used:
SEC-MALS = biological target: the molecule itself; experiment: SEC-MALS
SEC = biological target: the molecule itself; experiment: SEC
[1] = biological target: the molecule itself; experiment: fluorescence polarisation
[2] = biological target: the molecule itself; experiment: fluorescence polarisation; remark: listed apart in the source
[3] = biological target: the molecule itself; experiment: fluorescence polarisation; remark: listed apart in the source

B1: CARMA1 (8–172) (domain or fragment, human, UniProt Q9BXL7 8-172, looked up)
chain: MDDYMETLKDEEDALWENVECNRHMLSRYINPAKLTPYLRQCKVIDEQDEDEVLNAPMLPSKINRAGRLLDILHTKGQRGYVVFLESLEFYYPELYKLVTGKEPTRRFSTIVVEEGHEGLTHFLMNEVIKLQQQMKAKDLQRCELLARLRQLEDEKKQMTLTRVE
For B1, the “stoichiometry N” value (SEC-MALS) was 3.

B2: CARMA1 (8–302) (domain or fragment, human, UniProt Q9BXL7 8-302, looked up)
chain: MDDYMETLKDEEDALWENVECNRHMLSRYINPAKLTPYLRQCKVIDEQDEDEVLNAPMLPSKINRAGRLLDILHTKGQRGYVVFLESLEFYYPELYKLVTGKEPTRRFSTIVVEEGHEGLTHFLMNEVIKLQQQMKAKDLQRCELLARLRQLEDEKKQMTLTRVELLTFQERYYKMKEERDSYNDELVKVKDDNYNLAMRYAQLSEEKNMAVMRSRDLQLEIDQLKHRLNKMEEECKLERNQSLKLKNDIENRPKKEQVLELERENEMLKTKNQELQSIIQAGKRSLPDSDKAIL
For B2, the “stoichiometry N” value (SEC) was over 100.

B3: Bcl10 R36E/E50R/D51R triple mutant (natural protein)
chain: MEPTAPSLTEEDLTEVKKDALENLRVYLAEKIIAEEHFDHLRAKKILSRRRTEEISARTSSRKRAGKLLDYLQENPKGLDTLVESIRREKTQNFLIQKITDEVLKLRNIKLEHLKGLKCSSCEPFPDGATNNLSRSNSDESNFSEKLRASTVMYHPEGESSTTPFFSTNSSLNLPVLEVGRTENTIFSSTTLPRPGDPGAPPLPPDLQLEEEGTCANSSEMFLPLRSRTVSRQ
For B3, the “polymerization activity relative to WT Bcl10” value [1] was about 50%.

B4: Alexa 488-labeled Bcl10 (C29A/C57A double mutant), MBP removed by TEV (natural protein, human, UniProt O95999 1-233, looked up)
chain: MEPTAPSLTEEDLTEVKKDALENLRVYLAEKIIAERHFDHLRAKKILSREDTEEISARTSSRKRAGKLLDYLQENPKGLDTLVESIRREKTQNFLIQKITDEVLKLRNIKLEHLKGLKCSSCEPFPDGATNNLSRSNSDESNFSEKLRASTVMYHPEGESSTTPFFSTNSSLNLPVLEVGRTENTIFSSTTLPRPGDPGAPPLPPDLQLEEEGTCANSSEMFLPLRSRTVSRQ
modifications: Alexa 488 label (site not stated)
Protein B4 has a Kd [2] of 800 nM and a Kd [3] of 4300 nM.
